Source: US20190225650A1, “PEPTIDOMIMETIC MACROCYCLES AND USE THEREOF IN REGULATING HIF1ALPHA” (AILERON THERAPEUTICS, INC., priority 2013, published 2019)
Bridge positions count the residues as written; N and C are the ends. Square brackets hold non-standard residues; d marks the D form. Ala(3-Me-diazirin-3-yl) = CC1(C[C@H](N)C(=O)O)N=N1; S5 = C=CCCC[C@](C)(N)C(=O)O; Nle = CCCC[C@H](N)C(=O)O; Dap = NC[C@H](N)C(=O)O

B1: SP-97 (peptide)
peptide: Ac-FIDEEVLM[S5]LVI[S5]MGLDRI-NH2
modifications: staple 9-13
SMILES: CC[C@H](C)[C@H](NC(=O)[C@H](CCCNC(=N)N)NC(=O)[C@H](CC(=O)O)NC(=O)[C@H](CC(C)C)NC(=O)CNC(=O)[C@H](CCSC)NC(=O)[C@]1(C)CCCC=CCCC[C@](C)(NC(=O)[C@H](CCSC)NC(=O)[C@H](CC(C)C)NC(=O)[C@@H](NC(=O)[C@H](CCC(=O)O)NC(=O)[C@H](CCC(=O)O)NC(=O)[C@H](CC(=O)O)NC(=O)[C@@H](NC(=O)[C@H](Cc2ccccc2)NC(C)=O)[C@@H](C)CC)C(C)C)C(=O)N[C@@H](CC(C)C)C(=O)N[C@@H](C(C)C)C(=O)N[C@@H]([C@@H](C)CC)C(=O)N1)C(N)=O
B2: SP-64 (peptide)
peptide: Ac-FIDEE[Dap]L[Nle][S5]LVI[S5][Nle]ALDRI-NH2
modifications: staple 9-13
SMILES: CCCC[C@H](NC(=O)[C@H](CC(C)C)NC(=O)[C@H](CN)NC(=O)[C@H](CCC(=O)O)NC(=O)[C@H](CCC(=O)O)NC(=O)[C@H](CC(=O)O)NC(=O)[C@@H](NC(=O)[C@H](Cc1ccccc1)NC(C)=O)[C@@H](C)CC)C(=O)N[C@@]1(C)CCCC=CCCC[C@@](C)(C(=O)N[C@@H](CCCC)C(=O)N[C@@H](C)C(=O)N[C@@H](CC(C)C)C(=O)N[C@@H](CC(=O)O)C(=O)N[C@@H](CCCNC(=N)N)C(=O)N[C@H](C(N)=O)[C@@H](C)CC)NC(=O)[C@H]([C@@H](C)CC)NC(=O)[C@H](C(C)C)NC(=O)[C@H](CC(C)C)NC1=O
B3: SP-60 (peptide)
peptide: Ac-FIDEEVLA[S5]LVI[S5]AALD-NH2
modifications: staple 9-13
SMILES: CC[C@H](C)[C@H](NC(=O)[C@H](Cc1ccccc1)NC(C)=O)C(=O)N[C@@H](CC(=O)O)C(=O)N[C@@H](CCC(=O)O)C(=O)N[C@@H](CCC(=O)O)C(=O)N[C@H](C(=O)N[C@@H](CC(C)C)C(=O)N[C@@H](C)C(=O)N[C@@]1(C)CCCC=CCCC[C@@](C)(C(=O)N[C@@H](C)C(=O)N[C@@H](C)C(=O)N[C@@H](CC(C)C)C(=O)N[C@@H](CC(=O)O)C(N)=O)NC(=O)[C@H]([C@@H](C)CC)NC(=O)[C@H](C(C)C)NC(=O)[C@H](CC(C)C)NC1=O)C(C)C
B4: SP-50 (peptide)
peptide: Ac-FIDEEVLS[S5]LVI[S5][Nle]ALDRI-NH2
modifications: staple 9-13
SMILES: CCCC[C@H](NC(=O)[C@]1(C)CCCC=CCCC[C@](C)(NC(=O)[C@H](CO)NC(=O)[C@H](CC(C)C)NC(=O)[C@@H](NC(=O)[C@H](CCC(=O)O)NC(=O)[C@H](CCC(=O)O)NC(=O)[C@H](CC(=O)O)NC(=O)[C@@H](NC(=O)[C@H](Cc2ccccc2)NC(C)=O)[C@@H](C)CC)C(C)C)C(=O)N[C@@H](CC(C)C)C(=O)N[C@@H](C(C)C)C(=O)N[C@@H]([C@@H](C)CC)C(=O)N1)C(=O)N[C@@H](C)C(=O)N[C@@H](CC(C)C)C(=O)N[C@@H](CC(=O)O)C(=O)N[C@@H](CCCNC(=N)N)C(=O)N[C@H](C(N)=O)[C@@H](C)CC
B5: SP-90 (peptide)
peptide: Ac-FIDEEVLM[S5]LVI[S5]MGLDRIKELPELW-NH2
modifications: staple 9-13
SMILES: CC[C@H](C)[C@H](NC(=O)[C@H](Cc1ccccc1)NC(C)=O)C(=O)N[C@@H](CC(=O)O)C(=O)N[C@@H](CCC(=O)O)C(=O)N[C@@H](CCC(=O)O)C(=O)N[C@H](C(=O)N[C@@H](CC(C)C)C(=O)N[C@@H](CCSC)C(=O)N[C@@]1(C)CCCC=CCCC[C@@](C)(C(=O)N[C@@H](CCSC)C(=O)NCC(=O)N[C@@H](CC(C)C)C(=O)N[C@@H](CC(=O)O)C(=O)N[C@@H](CCCNC(=N)N)C(=O)N[C@H](C(=O)N[C@@H](CCCCN)C(=O)N[C@@H](CCC(=O)O)C(=O)N[C@@H](CC(C)C)C(=O)N2CCC[C@H]2C(=O)N[C@@H](CCC(=O)O)C(=O)N[C@@H](CC(C)C)C(=O)N[C@@H](Cc2c[nH]c3ccccc23)C(N)=O)[C@@H](C)CC)NC(=O)[C@H]([C@@H](C)CC)NC(=O)[C@H](C(C)C)NC(=O)[C@H](CC(C)C)NC1=O)C(C)C
B6: SP-70 (peptide)
peptide: Ac-FIDEQVLA[S5]LVI[S5]AALDRI-NH2
modifications: staple 9-13
SMILES: CC[C@H](C)[C@H](NC(=O)[C@H](CCCNC(=N)N)NC(=O)[C@H](CC(=O)O)NC(=O)[C@H](CC(C)C)NC(=O)[C@H](C)NC(=O)[C@H](C)NC(=O)[C@]1(C)CCCC=CCCC[C@](C)(NC(=O)[C@H](C)NC(=O)[C@H](CC(C)C)NC(=O)[C@@H](NC(=O)[C@H](CCC(N)=O)NC(=O)[C@H](CCC(=O)O)NC(=O)[C@H](CC(=O)O)NC(=O)[C@@H](NC(=O)[C@H](Cc2ccccc2)NC(C)=O)[C@@H](C)CC)C(C)C)C(=O)N[C@@H](CC(C)C)C(=O)N[C@@H](C(C)C)C(=O)N[C@@H]([C@@H](C)CC)C(=O)N1)C(N)=O
B7: SP-63 (peptide)
peptide: Ac-FIDE[Dap]VL[Nle][S5]LVI[S5][Nle]ALDRI-NH2
modifications: staple 9-13
SMILES: CCCC[C@H](NC(=O)[C@H](CC(C)C)NC(=O)[C@@H](NC(=O)[C@H](CN)NC(=O)[C@H](CCC(=O)O)NC(=O)[C@H](CC(=O)O)NC(=O)[C@@H](NC(=O)[C@H](Cc1ccccc1)NC(C)=O)[C@@H](C)CC)C(C)C)C(=O)N[C@@]1(C)CCCC=CCCC[C@@](C)(C(=O)N[C@@H](CCCC)C(=O)N[C@@H](C)C(=O)N[C@@H](CC(C)C)C(=O)N[C@@H](CC(=O)O)C(=O)N[C@@H](CCCNC(=N)N)C(=O)N[C@H](C(N)=O)[C@@H](C)CC)NC(=O)[C@H]([C@@H](C)CC)NC(=O)[C@H](C(C)C)NC(=O)[C@H](CC(C)C)NC1=O
B8: SP-77 (peptide)
peptide: Ac-FIDEE[S5]LMS[S5]VIEMGLDRIKELPELWL-NH2
modifications: staple 6-10
SMILES: CC[C@H](C)[C@H](NC(=O)[C@H](Cc1ccccc1)NC(C)=O)C(=O)N[C@@H](CC(=O)O)C(=O)N[C@@H](CCC(=O)O)C(=O)N[C@@H](CCC(=O)O)C(=O)N[C@@]1(C)CCCC=CCCC[C@@](C)(C(=O)N[C@H](C(=O)N[C@H](C(=O)N[C@@H](CCC(=O)O)C(=O)N[C@@H](CCSC)C(=O)NCC(=O)N[C@@H](CC(C)C)C(=O)N[C@@H](CC(=O)O)C(=O)N[C@@H](CCCNC(=N)N)C(=O)N[C@H](C(=O)N[C@@H](CCCCN)C(=O)N[C@@H](CCC(=O)O)C(=O)N[C@@H](CC(C)C)C(=O)N2CCC[C@H]2C(=O)N[C@@H](CCC(=O)O)C(=O)N[C@@H](CC(C)C)C(=O)N[C@@H](Cc2c[nH]c3ccccc23)C(=O)N[C@@H](CC(C)C)C(N)=O)[C@@H](C)CC)[C@@H](C)CC)C(C)C)NC(=O)[C@H](CO)NC(=O)[C@H](CCSC)NC(=O)[C@H](CC(C)C)NC1=O
B9: SP-93 (peptide)
peptide: Ac-FIDEEVLM[S5]LVI[S5]MGLDRIKELP-NH2
modifications: staple 9-13
SMILES: CC[C@H](C)[C@H](NC(=O)[C@H](Cc1ccccc1)NC(C)=O)C(=O)N[C@@H](CC(=O)O)C(=O)N[C@@H](CCC(=O)O)C(=O)N[C@@H](CCC(=O)O)C(=O)N[C@H](C(=O)N[C@@H](CC(C)C)C(=O)N[C@@H](CCSC)C(=O)N[C@@]1(C)CCCC=CCCC[C@@](C)(C(=O)N[C@@H](CCSC)C(=O)NCC(=O)N[C@@H](CC(C)C)C(=O)N[C@@H](CC(=O)O)C(=O)N[C@@H](CCCNC(=N)N)C(=O)N[C@H](C(=O)N[C@@H](CCCCN)C(=O)N[C@@H](CCC(=O)O)C(=O)N[C@@H](CC(C)C)C(=O)N2CCC[C@H]2C(N)=O)[C@@H](C)CC)NC(=O)[C@H]([C@@H](C)CC)NC(=O)[C@H](C(C)C)NC(=O)[C@H](CC(C)C)NC1=O)C(C)C
B10: SP-68 (peptide)
peptide: Ac-FIDEEVL[Nle][S5]LVI[S5][Nle]ALD[Dap]-NH2
modifications: staple 9-13
SMILES: CCCC[C@H](NC(=O)[C@H](CC(C)C)NC(=O)[C@@H](NC(=O)[C@H](CCC(=O)O)NC(=O)[C@H](CCC(=O)O)NC(=O)[C@H](CC(=O)O)NC(=O)[C@@H](NC(=O)[C@H](Cc1ccccc1)NC(C)=O)[C@@H](C)CC)C(C)C)C(=O)N[C@@]1(C)CCCC=CCCC[C@@](C)(C(=O)N[C@@H](CCCC)C(=O)N[C@@H](C)C(=O)N[C@@H](CC(C)C)C(=O)N[C@@H](CC(=O)O)C(=O)N[C@@H](CN)C(N)=O)NC(=O)[C@H]([C@@H](C)CC)NC(=O)[C@H](C(C)C)NC(=O)[C@H](CC(C)C)NC1=O
B11: SP-62 (peptide)
peptide: Ac-FI[Dap]EEVL[Nle][S5]LVI[S5][Nle]ALDRI-NH2
modifications: staple 9-13
SMILES: CCCC[C@H](NC(=O)[C@H](CC(C)C)NC(=O)[C@@H](NC(=O)[C@H](CCC(=O)O)NC(=O)[C@H](CCC(=O)O)NC(=O)[C@H](CN)NC(=O)[C@@H](NC(=O)[C@H](Cc1ccccc1)NC(C)=O)[C@@H](C)CC)C(C)C)C(=O)N[C@@]1(C)CCCC=CCCC[C@@](C)(C(=O)N[C@@H](CCCC)C(=O)N[C@@H](C)C(=O)N[C@@H](CC(C)C)C(=O)N[C@@H](CC(=O)O)C(=O)N[C@@H](CCCNC(=N)N)C(=O)N[C@H](C(N)=O)[C@@H](C)CC)NC(=O)[C@H]([C@@H](C)CC)NC(=O)[C@H](C(C)C)NC(=O)[C@H](CC(C)C)NC1=O

Each binder was assayed against T1, His6-tagged p300 (AA 323-423) (UniProt Q09472 323-423) (assay: TR-FRET HIF1a/p300 displacement; grade = IC50 >700 nM).
T1 construct: range 323-423; also called p300-CH; not shown: His6 tag
Outline: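 Peptides competed with HIF1α C-terminal transactivation domain for His6-p300-CH (complex 300 nM final) during 1 h at RT in 20 mM HEPES pH 7.4, 150 mM NaCl, 7.5 mM CHAPS, 1 mM DTT. Anti-Flag-K (0.5 μM) and anti-His-D2 (4 nM) were added for 2 h. IC50 was derived from the TR-FRET ratio by one-site fit.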

T1 sequence (Q09472 323-423 limits assumed): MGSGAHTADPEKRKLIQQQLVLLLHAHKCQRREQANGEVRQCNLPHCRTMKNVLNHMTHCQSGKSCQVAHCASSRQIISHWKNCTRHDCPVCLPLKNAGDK

IC50, > 700 nM:
B1
B2
B3
B4
B5
B6
B7
Ac-FIDEEV[Ala(3-Me-diazirin-3-yl)][Nle][S5]LVI[S5][Nle]ALDRI-NH2 (staple 9-13) [SP-71]
B8
B9
B10
B11
